Assay [1] concerns the target human CD40 receptor, stably expressed on HEK293 (HEK-Blue) reporter cells (human) (UniProt P25942).
The target of assay [2] is T1, mouse CTLA-4 (mouse, UniProt P09793 36-161).
T1 construct: also called mCTLA-4
The assay is described as follows: ELISA on immobilized mCTLA-4; supernatant of Vero cells infected with mJP-OV-2 (FIG. 33). (An ELISA detects its analyte on a solid surface through an enzyme-linked reagent.)

In turn, “hCD40ag (human CD40 agonist payload; Fc-less trimer of single-chain CD40L ectodomain trimer bundles with T4 fibritin trimerization motif), purified (ligand)” showed an EC50 (read off the curve), CD40 reporter cells, OD 650 nM in assay [1] of 3 ng/mL.

B1: mαCTLA-4 (mouse surrogate anti-CTLA-4 antagonist payload; anti-CTLA-4 VHH fused to the heavy chain of mouse IgG2a Fc), expressed from mJP-OV-2 (Fc fusion)
chain: QVQLVESGGGLAQPGGSLRLSCAASGSTISSVAVGWYRQTPGNQREWVATSSTSSTTATYADSVKGRFTISRDNAKNTIYLQMNSLKPEDTAVYYCKTGLTNWGRGTQVTVSSEPRGPTIKPCPPCKCPAPNLLGGPSVFIFPPKIKDVLMISLSPIVTCVVVDVSEDDPDVQISWFVNNVEVHTAQTQTHREDYNSTLRVVSALPIQHQDWMSGKEFKCKVNNKDLPAPIERTISKPKGSVRAPQVYVLPPPEEEMTKKQVTLTCMVTDFMPEDIYVEWTNNGKTELNYKNTEPVLDSDGSYFMYSKLRVEKKNWVERNSYSCSVVHEGLHNHHTTKSFSRTPGK
notes: also called Mouse CTLA-4 antagonist payload; OVTSB24
For B1, the binding result in assay [2] is “binds”.
